Laboratory results taken from US20100273722.

Test: sedimentation equilibrium AUC, self-association, 25 C

Q: With pancreatic peptide YY (PYY) as the substance, how does the % monomer at 30 µM read?
A: 94%
